Measurements as given in patent US11130793B2, “GLP-1/GLP-2 dual agonists” (Zealand Pharma A/S, priority 2016, dated 2021).
Square brackets hold non-standard residues; d marks the D form. Aib = CC(C)(N)C(=O)O

T1: human GLP-2 receptor (hGLP2-R) (human, UniProt O95838)
T1 sequence: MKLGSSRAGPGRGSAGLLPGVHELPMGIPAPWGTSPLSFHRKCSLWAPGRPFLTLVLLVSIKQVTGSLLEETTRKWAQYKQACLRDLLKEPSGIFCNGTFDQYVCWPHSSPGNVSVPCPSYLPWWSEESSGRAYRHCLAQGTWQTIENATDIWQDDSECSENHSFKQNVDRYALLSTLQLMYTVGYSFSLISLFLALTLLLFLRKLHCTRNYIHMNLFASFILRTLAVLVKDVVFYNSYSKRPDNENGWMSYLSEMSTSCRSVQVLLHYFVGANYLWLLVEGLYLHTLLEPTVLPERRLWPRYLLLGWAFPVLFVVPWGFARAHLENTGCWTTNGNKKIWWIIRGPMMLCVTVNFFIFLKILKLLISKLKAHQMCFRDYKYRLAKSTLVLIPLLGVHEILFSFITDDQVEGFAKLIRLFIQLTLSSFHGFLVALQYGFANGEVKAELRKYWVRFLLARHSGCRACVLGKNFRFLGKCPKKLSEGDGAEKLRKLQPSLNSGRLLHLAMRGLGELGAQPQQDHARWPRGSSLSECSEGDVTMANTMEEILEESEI


How the values were obtained:
[1] = biological target: T1, human GLP-2 receptor (hGLP2-R); assay: cell-based or functional assay
[2] = biological target: human glucagon-like peptide 1 receptor (GLP-1R) (human, UniProt P43220); assay: cell-based or functional assay

Binder	EC50 GLP-2 (nM); cAMP AlphaScreen [1]	EC50 GLP-1 (nM); cAMP AlphaScreen [2]
H-H[Aib]EGTFTSELATILDEQAARDFIAWLIQHKITD-OH (SMILES CC[C@H](C)[C@H](NC(=O)[C@H](Cc1ccccc1)NC(=O)[C@H](CC(=O)O)NC(=O)[C@H](CCCNC(=N)N)NC(=O)[C@H](C)NC(=O)[C@H](C)NC(=O)[C@H](CCC(N)=O)NC(=O)[C@H](CCC(=O)O)NC(=O)[C@H](CC(=O)O)NC(=O)[C@H](CC(C)C)NC(=O)[C@@H](NC(=O)[C@@H](NC(=O)[C@H](C)NC(=O)[C@H](CC(C)C)NC(=O)[C@H](CCC(=O)O)NC(=O)[C@H](CO)NC(=O)[C@@H](NC(=O)[C@H](Cc1ccccc1)NC(=O)[C@@H](NC(=O)CNC(=O)[C@H](CCC(=O)O)NC(=O)C(C)(C)NC(=O)[C@@H](N)Cc1c[nH]cn1)[C@@H](C)O)[C@@H](C)O)[C@@H](C)O)[C@@H](C)CC)C(=O)N[C@@H](C)C(=O)N[C@@H](Cc1c[nH]c2ccccc12)C(=O)N[C@@H](CC(C)C)C(=O)N[C@H](C(=O)N[C@@H](CCC(N)=O)C(=O)N[C@@H](Cc1c[nH]cn1)C(=O)N[C@@H](CCCCN)C(=O)N[C@H](C(=O)N[C@H](C(=O)N[C@@H](CC(=O)O)C(=O)O)[C@@H](C)O)[C@@H](C)CC)[C@@H](C)CC) [Compound 15]	0.038 nM	0.005 nM
H-H[Aib]EGTFTSELATILDEQAARDFIAWLQAHKITD-OH (SMILES CC[C@H](C)[C@H](NC(=O)[C@H](Cc1ccccc1)NC(=O)[C@H](CC(=O)O)NC(=O)[C@H](CCCNC(=N)N)NC(=O)[C@H](C)NC(=O)[C@H](C)NC(=O)[C@H](CCC(N)=O)NC(=O)[C@H](CCC(=O)O)NC(=O)[C@H](CC(=O)O)NC(=O)[C@H](CC(C)C)NC(=O)[C@@H](NC(=O)[C@@H](NC(=O)[C@H](C)NC(=O)[C@H](CC(C)C)NC(=O)[C@H](CCC(=O)O)NC(=O)[C@H](CO)NC(=O)[C@@H](NC(=O)[C@H](Cc1ccccc1)NC(=O)[C@@H](NC(=O)CNC(=O)[C@H](CCC(=O)O)NC(=O)C(C)(C)NC(=O)[C@@H](N)Cc1c[nH]cn1)[C@@H](C)O)[C@@H](C)O)[C@@H](C)O)[C@@H](C)CC)C(=O)N[C@@H](C)C(=O)N[C@@H](Cc1c[nH]c2ccccc12)C(=O)N[C@@H](CC(C)C)C(=O)N[C@@H](CCC(N)=O)C(=O)N[C@@H](C)C(=O)N[C@@H](Cc1c[nH]cn1)C(=O)N[C@@H](CCCCN)C(=O)N[C@H](C(=O)N[C@H](C(=O)N[C@@H](CC(=O)O)C(=O)O)[C@@H](C)O)[C@@H](C)CC) [Compound 13]	0.083 nM	0.016 nM
H-H[Aib]EGTFTSELATILDEQAARDFIAWLYAHKITD-OH (SMILES CC[C@H](C)[C@H](NC(=O)[C@H](Cc1ccccc1)NC(=O)[C@H](CC(=O)O)NC(=O)[C@H](CCCNC(=N)N)NC(=O)[C@H](C)NC(=O)[C@H](C)NC(=O)[C@H](CCC(N)=O)NC(=O)[C@H](CCC(=O)O)NC(=O)[C@H](CC(=O)O)NC(=O)[C@H](CC(C)C)NC(=O)[C@@H](NC(=O)[C@@H](NC(=O)[C@H](C)NC(=O)[C@H](CC(C)C)NC(=O)[C@H](CCC(=O)O)NC(=O)[C@H](CO)NC(=O)[C@@H](NC(=O)[C@H](Cc1ccccc1)NC(=O)[C@@H](NC(=O)CNC(=O)[C@H](CCC(=O)O)NC(=O)C(C)(C)NC(=O)[C@@H](N)Cc1c[nH]cn1)[C@@H](C)O)[C@@H](C)O)[C@@H](C)O)[C@@H](C)CC)C(=O)N[C@@H](C)C(=O)N[C@@H](Cc1c[nH]c2ccccc12)C(=O)N[C@@H](CC(C)C)C(=O)N[C@@H](Cc1ccc(O)cc1)C(=O)N[C@@H](C)C(=O)N[C@@H](Cc1c[nH]cn1)C(=O)N[C@@H](CCCCN)C(=O)N[C@H](C(=O)N[C@H](C(=O)N[C@@H](CC(=O)O)C(=O)O)[C@@H](C)O)[C@@H](C)CC) [Compound 14]	0.049 nM	0.021 nM

Results, then the binder that gave them:

EC50 GLP-2 (nM); cAMP AlphaScreen [1]	EC50 GLP-1 (nM); cAMP AlphaScreen [2]	Binder
0.054 nM	0.006 nM	H-H[Aib]EGTFTSELATILDEQAARDFIAWLISHKITD-OH (SMILES CC[C@H](C)[C@H](NC(=O)[C@H](Cc1ccccc1)NC(=O)[C@H](CC(=O)O)NC(=O)[C@H](CCCNC(=N)N)NC(=O)[C@H](C)NC(=O)[C@H](C)NC(=O)[C@H](CCC(N)=O)NC(=O)[C@H](CCC(=O)O)NC(=O)[C@H](CC(=O)O)NC(=O)[C@H](CC(C)C)NC(=O)[C@@H](NC(=O)[C@@H](NC(=O)[C@H](C)NC(=O)[C@H](CC(C)C)NC(=O)[C@H](CCC(=O)O)NC(=O)[C@H](CO)NC(=O)[C@@H](NC(=O)[C@H](Cc1ccccc1)NC(=O)[C@@H](NC(=O)CNC(=O)[C@H](CCC(=O)O)NC(=O)C(C)(C)NC(=O)[C@@H](N)Cc1c[nH]cn1)[C@@H](C)O)[C@@H](C)O)[C@@H](C)O)[C@@H](C)CC)C(=O)N[C@@H](C)C(=O)N[C@@H](Cc1c[nH]c2ccccc12)C(=O)N[C@@H](CC(C)C)C(=O)N[C@H](C(=O)N[C@@H](CO)C(=O)N[C@@H](Cc1c[nH]cn1)C(=O)N[C@@H](CCCCN)C(=O)N[C@H](C(=O)N[C@H](C(=O)N[C@@H](CC(=O)O)C(=O)O)[C@@H](C)O)[C@@H](C)CC)[C@@H](C)CC) [Compound 18]
0.15 nM	0.005 nM	H-H[Aib]EGTFTSELATILDEQAARDFIAWLIAQKITD-OH (SMILES CC[C@H](C)[C@H](NC(=O)[C@H](CC(C)C)NC(=O)[C@H](Cc1c[nH]c2ccccc12)NC(=O)[C@H](C)NC(=O)[C@@H](NC(=O)[C@H](Cc1ccccc1)NC(=O)[C@H](CC(=O)O)NC(=O)[C@H](CCCNC(=N)N)NC(=O)[C@H](C)NC(=O)[C@H](C)NC(=O)[C@H](CCC(N)=O)NC(=O)[C@H](CCC(=O)O)NC(=O)[C@H](CC(=O)O)NC(=O)[C@H](CC(C)C)NC(=O)[C@@H](NC(=O)[C@@H](NC(=O)[C@H](C)NC(=O)[C@H](CC(C)C)NC(=O)[C@H](CCC(=O)O)NC(=O)[C@H](CO)NC(=O)[C@@H](NC(=O)[C@H](Cc1ccccc1)NC(=O)[C@@H](NC(=O)CNC(=O)[C@H](CCC(=O)O)NC(=O)C(C)(C)NC(=O)[C@@H](N)Cc1c[nH]cn1)[C@@H](C)O)[C@@H](C)O)[C@@H](C)O)[C@@H](C)CC)[C@@H](C)CC)C(=O)N[C@@H](C)C(=O)N[C@@H](CCC(N)=O)C(=O)N[C@@H](CCCCN)C(=O)N[C@H](C(=O)N[C@H](C(=O)N[C@@H](CC(=O)O)C(=O)O)[C@@H](C)O)[C@@H](C)CC) [Compound 19]
0.066 nM	0.006 nM	H-H[Aib]EGTFTSELATILDEQAARDFIAWLIRHKITD-OH (SMILES CC[C@H](C)[C@H](NC(=O)[C@H](Cc1ccccc1)NC(=O)[C@H](CC(=O)O)NC(=O)[C@H](CCCNC(=N)N)NC(=O)[C@H](C)NC(=O)[C@H](C)NC(=O)[C@H](CCC(N)=O)NC(=O)[C@H](CCC(=O)O)NC(=O)[C@H](CC(=O)O)NC(=O)[C@H](CC(C)C)NC(=O)[C@@H](NC(=O)[C@@H](NC(=O)[C@H](C)NC(=O)[C@H](CC(C)C)NC(=O)[C@H](CCC(=O)O)NC(=O)[C@H](CO)NC(=O)[C@@H](NC(=O)[C@H](Cc1ccccc1)NC(=O)[C@@H](NC(=O)CNC(=O)[C@H](CCC(=O)O)NC(=O)C(C)(C)NC(=O)[C@@H](N)Cc1c[nH]cn1)[C@@H](C)O)[C@@H](C)O)[C@@H](C)O)[C@@H](C)CC)C(=O)N[C@@H](C)C(=O)N[C@@H](Cc1c[nH]c2ccccc12)C(=O)N[C@@H](CC(C)C)C(=O)N[C@H](C(=O)N[C@@H](CCCNC(=N)N)C(=O)N[C@@H](Cc1c[nH]cn1)C(=O)N[C@@H](CCCCN)C(=O)N[C@H](C(=O)N[C@H](C(=O)N[C@@H](CC(=O)O)C(=O)O)[C@@H](C)O)[C@@H](C)CC)[C@@H](C)CC) [Compound 17]
0.026 nM	0.006 nM	H-H[Aib]EGTFTSELATILDEQAARDFIAWLIKHKITD-OH (SMILES CC[C@H](C)[C@H](NC(=O)[C@H](Cc1ccccc1)NC(=O)[C@H](CC(=O)O)NC(=O)[C@H](CCCNC(=N)N)NC(=O)[C@H](C)NC(=O)[C@H](C)NC(=O)[C@H](CCC(N)=O)NC(=O)[C@H](CCC(=O)O)NC(=O)[C@H](CC(=O)O)NC(=O)[C@H](CC(C)C)NC(=O)[C@@H](NC(=O)[C@@H](NC(=O)[C@H](C)NC(=O)[C@H](CC(C)C)NC(=O)[C@H](CCC(=O)O)NC(=O)[C@H](CO)NC(=O)[C@@H](NC(=O)[C@H](Cc1ccccc1)NC(=O)[C@@H](NC(=O)CNC(=O)[C@H](CCC(=O)O)NC(=O)C(C)(C)NC(=O)[C@@H](N)Cc1c[nH]cn1)[C@@H](C)O)[C@@H](C)O)[C@@H](C)O)[C@@H](C)CC)C(=O)N[C@@H](C)C(=O)N[C@@H](Cc1c[nH]c2ccccc12)C(=O)N[C@@H](CC(C)C)C(=O)N[C@H](C(=O)N[C@@H](CCCCN)C(=O)N[C@@H](Cc1c[nH]cn1)C(=O)N[C@@H](CCCCN)C(=O)N[C@H](C(=O)N[C@H](C(=O)N[C@@H](CC(=O)O)C(=O)O)[C@@H](C)O)[C@@H](C)CC)[C@@H](C)CC) [Compound 16]
